Reference: patent publication US20230073274A1 (NOVELMED THERAPEUTICS, published 2023)
Changes are numbered by the printed parent chain.

B1: NMT31 (antibody, V domains shown)
VH: EVTLKESGPTLVKPTQTLTLTCTFSGFSLSTSGMGVGWIRQPPGKALEWLAHIWWDDVKSYNPALKSRLTITKDTSKNQVVLTMTNMDPVDTATYYCARIGDGYYSFDYWGQGTTVTVSS
VL: DIQMTQSPSSLSASVGDRVTITCRASQDVSDAVAWFQQKPGKAPKLLIYSPSYRYTGVPSRFSGSGSGTDFTFTISSLQPEDLATYYCQQHYSTPWTFGQGTKLEIK
B2: NMT29 (antibody, V domains shown)
VH: B1 VH
VL: B1 VL with F36Y, F73L, L83F
B3: NMT30 (antibody, V domains shown)
VH: B1 VH with M84I, M87V, V116L
VL: B1 VL with L83F
B4: NMT15 (antibody, V domains shown)
VH: QVQLVQSAPEVAKPGTSVKMSCKASGYIFTNYPIHWVKQAPGQGLEWIGFIDPGGGYDEPDERFRDRATLTADKSTSTAYMELSSLRSEDTAIYYCARRGGGYYLDYWGQGTLVTVSS
VL: DIQMTQSPSSLSASLGDRVTITCRASQDISFFLNWYQQKPDGTVKLLIYYTSRYHSGVPSRFSGSGSGTDFTLTISSLQPEDFATYFCQHGNTLPWTFGQGTKLEIK
B5: NMT28 (antibody, V domains shown)
VH: EVQLVQSGAEVKKPGASVKVSCKASGYIFTNYPIHWVRQAPGQGLEWMGFIDPGGGYDEPDERFRDRVTMTADTSTSTAYMELSSLRSEDTAVYYCARRGGGYYLDYWGQGTLVTVSS
VL: B4 VL with L15V, D41G, G42K, T43A, V44P, F87Y, N92Q, L104V

Experiments:
human properdin [1] = target: T1, human properdin (human, UniProt P27918 28-469); assay: cell-based or functional assay
T1 sequence (P27918 28-469 limits assumed): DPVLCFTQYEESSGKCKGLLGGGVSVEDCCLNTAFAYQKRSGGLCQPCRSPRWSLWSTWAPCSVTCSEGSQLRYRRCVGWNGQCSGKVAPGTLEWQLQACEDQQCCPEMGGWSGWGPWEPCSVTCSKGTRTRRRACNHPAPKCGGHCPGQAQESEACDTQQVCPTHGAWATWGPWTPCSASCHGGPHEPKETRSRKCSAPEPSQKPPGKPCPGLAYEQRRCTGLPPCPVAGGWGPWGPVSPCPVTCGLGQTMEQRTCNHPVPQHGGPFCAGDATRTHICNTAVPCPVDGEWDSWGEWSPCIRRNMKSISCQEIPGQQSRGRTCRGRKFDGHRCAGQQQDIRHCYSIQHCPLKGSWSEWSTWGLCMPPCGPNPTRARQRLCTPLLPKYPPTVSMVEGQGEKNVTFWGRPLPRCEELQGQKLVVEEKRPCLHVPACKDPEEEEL

human properdin [2] = target: T1, human properdin; assay: ELISA, properdin coated on the plate, OD 450 nm
human properdin [3] = target: T1, human properdin; assay: cell-based or functional assay; remark: listed apart in the source
human properdin [4] = target: T1, human properdin; assay: cell-based or functional assay; remark: listed apart in the source
human properdin [5] = target: T1, human properdin; assay: cell-based or functional assay; remark: listed apart in the source
human properdin [6] = target: T1, human properdin; assay: cell-based or functional assay; remark: listed apart in the source
human properdin [7] = target: T1, human properdin; assay: ELISA, human properdin coated on plate
Protocol: (§1) Polystyrene microtiter plates were coated with human (2.0 μg/50 μl per well) properdin in phosphate buffered saline (PBS) overnight at 4° C. After aspirating the properdin solution, the wells were blocked with PBS containing 1% bovine serum albumin (BSA) (Sigma-Aldrich, St. Louis, Mo.) for 2 hours at room temperature. Wells without peptide or properdin coating served as background controls. Aliquots of the test antibody in blocking solution were added to the properdin coated wells and allowed to incubate for 1 hour to allow binding to occur. Following a 1 hour incubation at room temperature, the plate was rinsed with PBS five times and incubated with 1:2000 diluted anti-properdin polyclonal antibody.

human properdin [8] = target: T1, human properdin; assay: ELISA, human properdin coated on the plate, OD 450 nm
Protocol: as §1

human properdin [9] = target: T1, human properdin; assay: ELISA, properdin coated on the plate, OD 450 nm; remark: listed apart in the source

| Binder | IC50 (read off the curve): C3b deposition (sheet title: LPS C3b 10% NHS) (human properdin [1]) | EC50 (read off the curve) (human properdin [2]) | IC50 (read off the curve): properdin deposition (AP C3 convertase formation assay) (human properdin [6]) | other results |
| --- | --- | --- | --- | --- |
| B1 | ~0.7 µg/mL | ~0.06 nM | – | – |
| B2 | ~0.9 µg/mL | ~0.05 nM | – | – |
| B3 | ~0.4 µg/mL | ~0.04 nM | – | – |
| B4 | – | – | ~0.4 µg/mL | MAC (µg/Ml); inhibition of MAC formation (human properdin [3]): 1 µg/mL; Properdin (µg/mL); inhibition of properdin deposition (human properdin [3]): 2 µg/mL; IC50 (read off the curve): properdin deposition (AP activation on LPS, 10% normal human serum) (human properdin [4]): ~0.8 µg/mL; IC50 (read off the curve): C3b deposition (AP activation on LPS, normal human serum) (human properdin [5]): ~0.5 µg/mL; Binding Affinity (human properdin [7]): 270 pM; EC50 (read off the curve) (human properdin [8]): 0.2 to 0.3 nM |
| B5 | – | – | ~0.3 µg/mL | IC50 (read off the curve): C3b deposition (AP C3 convertase formation assay) (human properdin [6]): ~0.3 µg/mL; EC50 (read off the curve) (human properdin [9]): ~0.06 nM |
